# Tests used:
# Assay type in all cases: physicochemical
# [1] = Rheological properties of pH adjusted peptide solutions and hydrogels (stress/frequency sweep)
# Experimental: Based on the visual observation of the effect of pH level on the properties of the peptide solutions, the effect on the rheological properties of the peptide solutions after adjusting their pH level to 3.4 (PuraMatrix® and KLD12) or 3.7 (IEIK13) was evaluated. If the pH levels of peptide solutions are higher than 3.5 (PuraMatrix® and KLD12) or 3.7 (IEIK13), the peptide solution began phase separation becoming cloudy. The rheological properties of PuraMatrix®, KLD12 and IEIK13 solutions were higher at pH 3.4. The results are shown in FIG. 2 for KLD12 1%, FIG. 3 for IEIK13 1%, and FIGS. 4-5 for PuraMatrix® 1% and 2.5%, respectively. Stress sweep tests were performed at 10 rad/s. Frequency sweep tests were performed at 1 Pa.
# Based on the results of the effect on the rheological properties of the peptide solutions after adjusting their pH level to 3.4 (PuraMatrix® and KLD12) or 3.7 (IEIK13), the effect on the rheological properties of the peptide solutions at various pH levels was evaluated. […] The rheological properties of peptides were evaluated at various concentrations using a rheometer (DHR-1, TA Instruments) with 20 mm plates. The results are shown in FIG. 6A for PuraMatrix® 2.5% solution and FIG. 6B for IEIK13 1.5% solution, respectively. Frequency sweep tests were performed from 1 rad/sec to 10 rad/sec at 1 Pa and the storage modulus at 1 rad/sec was selected for data.
# Based on the results of the effect on the rheological properties of the peptide solutions after adjusting their pH level, the effect on the rheological properties of the peptide hydrogels at various pH after DMEM treatment was evaluated and compared to the effect on the rheological properties of the peptide solutions at various pH before DMEM treatment. […] The results are shown in FIGS. 7A-7B for PuraMatrix® and FIGS. 8A-8B for IEIK (SEQ ID NO: 5), respectively. Frequency sweep tests were performed from 1 rad/sec to 10 rad/sec at 1 Pa and the storage modulus at 1 rad/sec was selected for data.
# [2] = pH and appearance of 2.5% peptide solutions after adding 0.1 N NaOH
# Experimental: To adjust the pH level of the peptide solutions by way of example, 0.1 N NaOH was added to 2 mL of 2.5% peptide solutions and their pH and appearance were measured.
# [3] = Appearance of 1.5% peptide solutions with various salts at room temperature; settings: for Appearance: room temperature
# Experimental: The effect of salt ionic strength level on the properties of peptide solutions was evaluated to identify optimized salt ionic strength levels for the peptides as described herein. Increasing the salt ionic strength level of PuraMatrix® and other peptides may generally improve its function and mechanical strength for various clinical applications. To adjust the salt ionic strength of the peptide solutions by way of example, various salt buffer solutions including NaCl, KCl, MgCl2, CaCl2 and DPBS (10×) were added to 2 mL of 1.5% peptide solutions.
# [4] = 0.1 N NaOH 0 μL/mL added in 2.5% solution, conc. 2.5%
# [5] = 0.1 N NaOH 50 μL/mL added in 2.5% solution, conc. 2.38%
# [6] = 0.1 N NaOH 100 μL/mL added in 2.5% solution, conc. 2.27%
# [7] = pH increase up to approximately 3.5 or less with 0.1 N NaOH, 2.5% solutions
substance,measurement,setting,value
Arg-Ala-Asp-Ala-Arg-Ala-Asp-Ala-Arg-Ala-Asp-Ala-Arg-Ala-Asp-Ala [PuraMatrix ®],rheological property of solutions at various pH levels,"[1]; PuraMatrix 2.5% solution, IEIK13 1.5% solution, storage modulus at 1 rad/sec",increases with pH adjustment up to 3.4
same,rheological property of hydrogels after DMEM treatment at various pH,"[1]; after DMEM treatment, storage modulus at 1 rad/sec",increases with pH adjustment up to 3.4
same,rheological properties of solutions after pH adjustment,"[1]; at pH 3.4 (IEIK13 adjusted to 3.7), KLD12 1%, IEIK13 1%, PuraMatrix 1% and 2.5%",higher
same,Appearance,[2]; [4],"Clear, thick gel"
same,Peptide solution pH,[2]; [4],2.2
same,Appearance,[2]; [5],"Clear, thick gel"
same,Peptide solution pH,[2]; [5],2.3
same,Appearance,[2]; [6],"Clear, thick gel"
same,Peptide solution pH,[2]; [6],2.4
same,Peptide solution pH,"[2]; 0.1 N NaOH 150 μL/mL added in 2.5% solution, conc. 2.17%",2.7
same,Peptide solution pH,"[2]; 0.1 N NaOH 200 μL/mL added in 2.5% solution, conc. 2.08%",2.9
same,Peptide solution pH,"[2]; 0.1 N NaOH 250 μL/mL added in 2.5% solution, conc. 2.0%",3.2
same,Peptide solution pH,"[2]; 0.1 N NaOH 275 μL/mL added in 2.5% solution, conc. 1.96%",3.4
same,Peptide solution pH,"[2]; 0.1 N NaOH 300 μL/mL added in 2.5% solution, conc. 1.92%",3.6
same,Peptide solution pH,"[2]; 0.1 N NaOH 350 μL/mL added in 2.5% solution, conc. 1.85%",4.5
same,Peptide solution pH,"[2]; last line per peptide, NaOH volume and conc. not given",7.0
same,apparent stiffness on pH increase,[2]; [7],increased
same,color of solution on pH increase,[2]; [7],did not change the clear color
same,Appearance,"[3]; CaCl2 0 M, ionic strength 0 M, PuraMatrix 1.5%","Clear, thick gel"
same,Appearance,"[3]; CaCl2 0.05 M, ionic strength 0.15 M, PuraMatrix 1.48%","Clear, thick, stiffer gel"
same,Appearance,"[3]; CaCl2 0.1 M, ionic strength 0.3 M, PuraMatrix 1.45%","Clear, thick, stiffer gel"
same,Appearance,"[3]; CaCl2 0.15 M, ionic strength 0.45 M, PuraMatrix 1.43%","Clear, thick, stiffer gel"
same,Appearance,"[3]; CaCl2 0.2 M, ionic strength 0.6 M, PuraMatrix 1.4%","Clear, thick, stiffer gel"
same,Appearance,"[3]; CaCl2 0.25 M, ionic strength 0.75 M, PuraMatrix 1.38%","Clear, thick, stiffer gel"
same,Appearance,"[3]; CaCl2 0.3 M, ionic strength 0.9 M, PuraMatrix 1.35%","Clear, thick, stiffer gel"
same,Appearance,"[3]; CaCl2 0.35 M, ionic strength 1.05 M, PuraMatrix 1.32%","Clear, thick, stiffer gel"
same,Appearance,"[3]; CaCl2 0.383 M, ionic strength 1.15 M, PuraMatrix 1.31%","Clear, thick, stiffer gel"
same,Appearance,"[3]; CaCl2 0.4 M, ionic strength 1.2 M, PuraMatrix 1.3%","Slightly cloudy, thick, stiffer gel"
same,Appearance,"[3]; CaCl2 0.417 M, ionic strength 1.25 M, PuraMatrix 1.29%","Slightly cloudy, brittle gel"
same,Appearance,"[3]; CaCl2 0.433 M, ionic strength 1.3 M, PuraMatrix 1.28%","Cloudy, phase-separated"
same,Appearance,"[3]; DPBS (pH 3.2) 0 M, ionic strength 0 M, PuraMatrix 1.5%","Clear, thick gel"
same,Appearance,"[3]; DPBS (pH 3.2) 0.15 M, ionic strength 0.15 M, PuraMatrix 1.35%","Clear, thick, stiffer gel"
same,Appearance,"[3]; DPBS (pH 3.2) 0.3 M, ionic strength 0.3 M, PuraMatrix 1.2%","Clear, thick, stiffer gel"
same,Appearance,"[3]; DPBS (pH 3.2) 0.45 M, ionic strength 0.45 M, PuraMatrix 1.05%","Clear, thick, stiffer gel"
same,Appearance,"[3]; DPBS (pH 3.2) 0.6 M, ionic strength 0.6 M, PuraMatrix 0.9%","Clear, thick, stiffer gel"
same,Appearance,"[3]; DPBS (pH 3.2) 0.75 M, ionic strength 0.75 M, PuraMatrix 0.75%","Clear, thick, stiffer gel"
same,Appearance,"[3]; DPBS (pH 3.2) 0.9 M, ionic strength 0.9 M, PuraMatrix 0.6%","Clear, thick, stiffer gel"
same,Appearance,"[3]; DPBS (pH 3.2) 0.95 M, ionic strength 0.95 M, PuraMatrix 0.55%","Slightly cloudy, brittle gel"
same,Appearance,"[3]; DPBS (pH 3.2) 1.0 M, ionic strength 1.0 M, PuraMatrix 0.5%","Cloudy, phase-separated"
same,Appearance,"[3]; KCl 0 M, ionic strength 0 M, PuraMatrix 1.5%","Clear, thick gel"
same,Appearance,"[3]; KCl 0.15 M, ionic strength 0.15 M, PuraMatrix 1.43%","Clear, thick, stiffer gel"
same,Appearance,"[3]; KCl 0.3 M, ionic strength 0.3 M, PuraMatrix 1.35%","Clear, thick, stiffer gel"
same,Appearance,"[3]; KCl 0.45 M, ionic strength 0.45 M, PuraMatrix 1.27%","Clear, thick, stiffer gel"
same,Appearance,"[3]; KCl 0.6 M, ionic strength 0.6 M, PuraMatrix 1.2%","Clear, thick, stiffer gel"
same,Appearance,"[3]; KCl 0.75 M, ionic strength 0.75 M, PuraMatrix 1.13%","Clear, thick, stiffer gel"
same,Appearance,"[3]; KCl 0.9 M, ionic strength 0.9 M, PuraMatrix 1.05%","Clear, thick, stiffer gel"
same,Appearance,"[3]; KCl 0.95 M, ionic strength 0.95 M, PuraMatrix 1.03%","Clear, thick, stiffer gel"
same,Appearance,"[3]; KCl 1.0 M, ionic strength 1.0 M, PuraMatrix 1.0%","Clear, thick, stiffer gel"
same,Appearance,"[3]; KCl 1.05 M, ionic strength 1.05 M, PuraMatrix 0.98%","Slightly cloudy, thick, stiffer gel"
same,Appearance,"[3]; KCl 1.1 M, ionic strength 1.1 M, PuraMatrix 0.95%","Slightly cloudy, brittle gel"
same,Appearance,"[3]; KCl 1.15 M, ionic strength 1.15 M, PuraMatrix 0.93%","Cloudy, phase-separated"
same,Appearance,"[3]; MgCl2 0 M, ionic strength 0 M, PuraMatrix 1.5%","Clear, thick gel"
same,Appearance,"[3]; MgCl2 0.05 M, ionic strength 0.15 M, PuraMatrix 1.48%","Clear, thick, stiffer gel"
same,Appearance,"[3]; MgCl2 0.1 M, ionic strength 0.3 M, PuraMatrix 1.45%","Clear, thick, stiffer gel"
same,Appearance,"[3]; MgCl2 0.15 M, ionic strength 0.45 M, PuraMatrix 1.43%","Clear, thick, stiffer gel"
same,Appearance,"[3]; MgCl2 0.2 M, ionic strength 0.6 M, PuraMatrix 1.4%","Clear, thick, stiffer gel"
same,Appearance,"[3]; MgCl2 0.25 M, ionic strength 0.75 M, PuraMatrix 1.38%","Clear, thick, stiffer gel"
same,Appearance,"[3]; MgCl2 0.3 M, ionic strength 0.9 M, PuraMatrix 1.35%","Clear, thick, stiffer gel"
same,Appearance,"[3]; MgCl2 0.35 M, ionic strength 1.05 M, PuraMatrix 1.32%","Clear, thick, stiffer gel"
same,Appearance,"[3]; MgCl2 0.383 M, ionic strength 1.15 M, PuraMatrix 1.31%","Clear, thick, stiffer gel"
same,Appearance,"[3]; MgCl2 0.4 M, ionic strength 1.2 M, PuraMatrix 1.3%","Slightly cloudy, thick, stiffer gel"
same,Appearance,"[3]; MgCl2 0.417 M, ionic strength 1.25 M, PuraMatrix 1.29%","Slightly cloudy, brittle gel"
same,Appearance,"[3]; MgCl2 0.433 M, ionic strength 1.3 M, PuraMatrix 1.28%","Cloudy, phase-separated"
same,Appearance,"[3]; NaCl 0 M, ionic strength 0 M, PuraMatrix 1.5%","Clear, thick gel"
same,Appearance,"[3]; NaCl 0.15 M, ionic strength 0.15 M, PuraMatrix 1.43%","Clear, thick, stiffer gel"
same,Appearance,"[3]; NaCl 0.3 M, ionic strength 0.3 M, PuraMatrix 1.35%","Clear, thick, stiffer gel"
same,Appearance,"[3]; NaCl 0.45 M, ionic strength 0.45 M, PuraMatrix 1.27%","Clear, thick, stiffer gel"
same,Appearance,"[3]; NaCl 0.6 M, ionic strength 0.6 M, PuraMatrix 1.2%","Clear, thick, stiffer gel"
same,Appearance,"[3]; NaCl 0.75 M, ionic strength 0.75 M, PuraMatrix 1.13%","Clear, thick, stiffer gel"
same,Appearance,"[3]; NaCl 0.8 M, ionic strength 0.8 M, PuraMatrix 1.10%","Clear, thick, stiffer gel"
same,Appearance,"[3]; NaCl 0.85 M, ionic strength 0.85 M, PuraMatrix 1.08%","Clear, thick, stiffer gel"
same,Appearance,"[3]; NaCl 0.9 M, ionic strength 0.9 M, PuraMatrix 1.05%","Slightly cloudy, brittle gel"
same,Appearance,"[3]; NaCl 0.95 M, ionic strength 0.95 M, PuraMatrix 1.03%","Cloudy, phase-separated"
same,Appearance,"[3]; NaCl 1.0 M, ionic strength 1.0 M, PuraMatrix 1.0%","Cloudy, phase-separated"
same,apparent stiffness on salt ionic strength increase,[3]; up to the ionic strength at which solutions stay clear,increased
